Where “and” joins values, the source holds several entries; their conditions need not be identical. Equal entries are not always repeated.
T1: AahII toxin of Androctonus australis hector (Androctonus australis hector, UniProt P01484 20-83)
T1 construct: mature; also called Aahll
T1 sequence: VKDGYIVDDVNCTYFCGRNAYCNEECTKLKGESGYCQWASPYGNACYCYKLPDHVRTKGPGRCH


What was measured:
[1] = biological target: AahI' toxin of Androctonus australis hector (Androctonus australis hector) (UniProt P01479); assay: cell-based or functional assay
Sequence of AahI' toxin of Androctonus australis hector (Androctonus australis hector) (P01479 20-82): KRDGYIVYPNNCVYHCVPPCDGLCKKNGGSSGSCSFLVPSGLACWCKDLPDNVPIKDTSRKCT

[2] = biological target: T1, AahII toxin of Androctonus australis …; assay: SPR (BIAcore), AahII immobilised on CM5 chip, Nb in mobile phase
[3] = biological target: T1, AahII toxin of Androctonus australis …; assay: cell-based or functional assay

Binder | surviving mice; i.c.v.; 4 LD50 AahI'; ratio 1:2 (survivors of 4 mice) [1] | Kd [2] | koff [2] | kon [2] | other results
AahI'B23 (VHH) VHH: QVQLQESGGGSVQAGGSLRLSCAASGYQQTGYCMGWFRQAPGKEREGVAVIKTFYAGTVYADSVKGRFTISQDIAKNTVYLQMNSLQPEDTAMYYCAITGGPWNGRCPLTSQAFRYWGQGTQVTVSS | 0 | – | – | – | –
NbAahII12 (VHH, Purified from E. coli periplasm with His6; also called cluster I) VHH: QVQLVESGGGLVQPGGSLRLSCAASGFSFNIYAMSWVRQAPGKQFEWVSGIHPNGRSTYYTDSVKGRFTISRDNAKNTLYLQLDSLKTEDTAMYYCAKGVLTKYVGGARGQGTQVTVSS | – | 0.28 nM | 0.0016 s⁻¹ | 5.63e+06 M⁻¹ s⁻¹ | NC = (LD50 with Nb - LD50 without Nb)/Nb; i.c.v.; AahII:Nb 1:4 [3]: 27000 LD50/mg and 400 LD50/nmol; Survivors/Injected mice; i.c.v.; AahII:Nb 1:4; 2 LD50/mouse; 48 ng Nb/mouse [3]: 3 survivors of 4 mice; Survivors/Injected mice; i.c.v.; AahII:Nb 1:4; 3 LD50/mouse; 72 ng Nb/mouse [3]: 2 survivors of 4 mice
NbAahII19 (VHH, Purified from E. coli periplasm with His6; also called cluster I) VHH: QVQLQESGGGLVQPGGSLRLSCAASGFSFNIYAMSWVRQAPGKQFEWVSGIHPDGRSTYYTDSVKGRFTISRDNAKNTLYLQLDSLKTEDTAMYYCAKGVLTKYVGSARGQGTQVTVSS | – | 2.39 nM | 0.013 s⁻¹ | 5.46e+06 M⁻¹ s⁻¹ | Survivors/Injected mice; i.c.v.; AahII:Nb 1:4; 2 LD50/mouse; 48 ng Nb/mouse [3]: 4 survivors of 4 mice; Survivors/Injected mice; i.c.v.; AahII:Nb 1:4; 3 LD50/mouse; 72 ng Nb/mouse [3]: 4 survivors of 4 mice
AahI'C14 (VHH) VHH: QVQLQESGGGSVQAEGSLRLSCTVSGLTSSSNYVGWFRQAPGKEREGVATIGPYTRNTRYADSVNGRFTISLDNAKSTLYLQMNGLKPEDTAIYYCAAGKTTWIRALRSDDYKYWGQGTQVTVSS | 0 | – | – | – | –
AahI'D11 (VHH) VHH: QVQLQESGGGSVEAGGSLRLSCATSGFTFSRYAMYWFRQAPGMECEWVSTIHTNGDTYYANSLKGRFTGSRDNAKNTAYLQMNSLKPEDTAVYYCHAPLNDGSTPTHICSRAGSYGYWGQGTQVTVSS | 2 | – | – | – | –
NbAahII20 (VHH, Purified from E. coli periplasm with His6; also called NbAahIKO (I); cluster I) VHH: QVQLQESGGGLVQPGGSLRLSCTASGFDFSRYVMSWVRQAPGKDFEWISGIMPLSSAGTTYADAVKGRFTISRDNAKNTLYLQLNNLKTEDTAIYYCAKGVYTTYIGGARGQGTQVTVSS | – | 0.26 nM | 0.00213 s⁻¹ | 8.18e+06 M⁻¹ s⁻¹ | NC = (LD50 with Nb - LD50 without Nb)/Nb; i.c.v.; AahII:Nb 1:4 [3]: 27000 LD50/mg and 400 LD50/nmol; Survivors/Injected mice; i.c.v.; AahII:Nb 1:2; 2 LD50/mouse; 24 ng Nb/mouse [3]: 3 survivors of 4 mice; Survivors/Injected mice; i.c.v.; AahII:Nb 1:2; 4 LD50/mouse; 48 ng Nb/mouse [3]: 2 survivors of 4 mice; Survivors/Injected mice; i.c.v.; AahII:Nb 1:4; 3 LD50/mouse; 72 ng Nb/mouse [3]: 2 survivors of 4 mice
NbAahII39 (VHH, also called cluster G) VHH: QVQLVESGGGSVQAGGSLRLSCAASGYTCTKFNMGWYRQAPGKERKMVATIRRDGTTYYADSVKGRFTISQDNAKNTVYLQMTSLKPEDSAMYYCSFRCVTPSLPYWGQGTQVTVSS | – | 0.16 nM | 0.00105 s⁻¹ | 6.41e+06 M⁻¹ s⁻¹ | –
AahI'A19 (VHH) VHH: QVQLQESGGGSVQAGGSLRLSCVASEYSECIGWFRQAPGKEREGVAAIEKVLGQRWRADSIHDRITISQDKAKNTVYLQMTSLKIDDTAMYYCAAKGRGCMSQPTTGYLSWGQGTQVTVSS | 4 | – | – | – | –
AahI'A2 (VHH) VHH: QVQLQESGGGSVQAGGSLRLSCAASGFPASSYCMAWFRQAPGKEREGLAAIYNGGRRYYPDSLKGRFTIEDKAENTIYLEMNSLKPEDTATYYCAARSNQCWYATLQQSWYPYWGQGTQVTVSS | 0 | – | – | – | –
NbAahII05 (VHH, also called cluster G) VHH: QVQLQESGGGSVQAGGSLRLSCAASGYTCTKFNMGWYRQAPGKQREFVASIRRDSTIYYGDSVKGRFTISQDNAKNMVYLQMTSLKPEDSAMYYCSTRCLTSSVPYWGQGTQVTVSS | – | 0.67 nM | 0.00186 s⁻¹ | 2.77e+06 M⁻¹ s⁻¹ | Survivors/Injected mice; i.c.v.; AahII:Nb 1:2; 2 LD50/mouse; 24 ng Nb/mouse [3]: 4 survivors of 4 mice; Survivors/Injected mice; i.c.v.; AahII:Nb 1:2; 3 LD50/mouse; 36 ng Nb/mouse [3]: 4 survivors of 4 mice; Survivors/Injected mice; i.c.v.; AahII:Nb 1:2; 4 LD50/mouse; 48 ng Nb/mouse [3]: 1 survivors of 4 mice; Survivors/Injected mice; i.c.v.; AahII:Nb 1:4; 3 LD50/mouse; 72 ng Nb/mouse [3]: 4 survivors of 4 mice
AahI'C13 (VHH) VHH: QVQLQESGGGSVQPGGSLRLSCAASGYIYSRYCMGWFRQAPGKEREGVAVISGYGTTHFADSAKGRFTISQDKAKNMVYLQMNSLRPEDTAIYYCAVRQWDCYSANWPQTHTYDYWGQGTQVTVSS | 2 | – | – | – | –
AahI'B2 (VHH) VHH: QVQLQESGGGSVQAGGSLRLSCVASEYSYRRNCMAWYRQAPGKEREGVARISTAYDITYYADSANGRFTISQDKAKKTVYLQMNSLKPEDSAMYYCSVSTGSDCYSMSLPRMDYWGKGTQVTVSS | 4 | – | – | – | –
AahI'A3 (VHH) VHH: QVQLQESGGGSVQAGGSLRLSCAASGFTFRSPYCMGWFRQAPGKEREAVAAIKTYYAGTVYADSMKGRFTITQDIAKNTVYLQMNSLKPEDTATYYCAATGGPYNGRCPLTSQPFPNWGQGTQVTVSS | 4 | – | – | – | –
AahI'B1 (VHH) VHH: QVQLQESGGGSVQAGGSLRLSCTASKYTSAVGWFRQAPGKEREGVASIYGYTGSGSSGSTYYADSGKGRFTISRDSAKNMVYLQMNSLKPEDTAMYYCTAADRPRFRLLVEDDVVYWGQGTQVTVSS | 0 | – | – | – | –
AahI'F12 (VHH) VHH: QVQLQESGGGSVQAGGSLRLSCVGPGISYVYNRVGWFRQAPGKESEVVAAFYTSNTSALYYAAQVKGRFTISQGNAKNTVYLQMNNLKPEDSGKYYCATANGGLLSDARGYRHYGQGTQVTVSS | 4 | – | – | – | surviving mice; i.c.v.; 20 LD50 AahI'; ratio 1:2 (survivors of 4 mice) [1]: 4; surviving mice; i.c.v.; 23 LD50 AahI'; ratio 1:2 (survivors of 4 mice) [1]: 4; surviving mice; i.c.v.; 26 LD50 AahI'; ratio 1:2 (survivors of 4 mice) [1]: 4; surviving mice; i.c.v.; 29 LD50 AahI'; ratio 1:2 (survivors of 4 mice) [1]: 4; surviving mice; i.c.v.; 33 LD50 AahI'; ratio 1:2 (survivors of 4 mice) [1]: 4; surviving mice; i.c.v.; 37 LD50 AahI'; ratio 1:2 (survivors of 4 mice) [1]: 4; surviving mice; i.c.v.; 47 LD50 AahI'; ratio 1:2 (survivors of 4 mice) [1]: 4; surviving mice; i.c.v.; 60 LD50 AahI'; ratio 1:2 (survivors of 4 mice) [1]: 4; surviving mice; i.c.v.; 70 LD50 AahI'; ratio 1:2 (survivors of 4 mice) [1]: 4; surviving mice; i.c.v.; 75 LD50 AahI'; ratio 1:2 (survivors of 4 mice) [1]: 4; surviving mice; i.c.v.; 80 LD50 AahI'; ratio 1:2 (survivors of 4 mice) [1]: 4; surviving mice; i.c.v.; 90 LD50 AahI'; ratio 1:2 (survivors of 4 mice) [1]: 4; surviving mice; i.c.v.; 95 LD50 AahI'; ratio 1:1 (survivors of 4 mice) [1]: 2; surviving mice; i.c.v.; 95 LD50 AahI'; ratio 1:2 (survivors of 4 mice) [1]: 4; surviving mice; i.c.v.; 100 LD50 AahI'; ratio 1:1 (survivors of 4 mice) [1]: 2; surviving mice; i.c.v.; 100 LD50 AahI'; ratio 1:2 (survivors of 4 mice) [1]: 4
NbAahII18 (VHH, also called NbAahlllδ; NbAahll l δ) VHH: QVQLQESGGGSVQAGGSLRLSCAASGDSYSNYYMAWFRQAPGKEREGVAHINRSGRITLYADSVKGRFTMSRDNAKNTVYLQMNSLRPEDTAIYYCAAGVRTHMPPLASYGFDYWGQGTQVTVSS | – | 0.18 nM | 0.0016 s⁻¹ | 8.95e+06 M⁻¹ s⁻¹ | NC = (LD50 with Nb - LD50 without Nb)/Nb; i.c.v.; AahII:Nb 1:4 [3]: 27000 LD50/mg and 400 LD50/nmol; Survivors/Injected mice; i.c.v.; AahII:Nb 1:2; 3 LD50/mouse; 36 ng Nb/mouse [3]: 1 survivors of 4 mice; Survivors/Injected mice; i.c.v.; AahII:Nb 1:2; 4 LD50/mouse; 48 ng Nb/mouse [3]: 0 survivors of 4 mice; Survivors/Injected mice; i.c.v.; AahII:Nb 1:4; 2 LD50/mouse; 48 ng Nb/mouse [3]: 2 survivors of 4 mice; Survivors/Injected mice; i.c.v.; AahII:Nb 1:4; 3 LD50/mouse; 72 ng Nb/mouse [3]: 2 survivors of 4 mice
NbAahII08 (VHH, also called cluster F) VHH: DVQLVESGGGSVQAGGSLRLSCAASGDSYSNYYMAWFRQAPGKEREGVAHINRSGRITLYADSVKGRFTMSRDNAKNTVYLQMNSLKPEDTAIYYCAAGVRTHMPPLASYGFDYWGQGTQVTVSS | – | 0.12 nM | 0.00138 s⁻¹ | 1.19e+07 M⁻¹ s⁻¹ | –
NbAahII41 (VHH, also called cluster I) VHH: QVQLVESGGGSVQAGGSLRLSCAASGFDFSIYVMSWVRQAPGKGLEWISGIMPSGQTTYADAVKGRFTISRDNAKNTLYLQLNSLKTEDTAIYYCAKGVYTKYVGGARGQGTQVTVSS | – | 2.31 nM | 0.01 s⁻¹ | 4.33e+06 M⁻¹ s⁻¹ | –
AahI'D19 (VHH) VHH: QVQLQESGGGLVQPGGSLRLSCAVTDFTFSFYWMYWVRQAPGKNLEWISSLHSDGYTYYPDSVKGRFTISRDTAKNMLYLQMNSLKPEDTAVYYCATAIRNMWGQAAPGSAGYWGQGTQVTVSS | 4 | – | – | – | –
NbAahII17 (VHH, also called cluster D) VHH: DVQLVESGGGSVQAGGSLRLSCAASGVTLNNYCVGWFRQAPGKEREGVAAFKSGGSFTYYADSVKGRFTISKDNAKNTMYLQMNSLNSDDTAMYYCAVTRNSCLGLAKFRPSSYNYWGQGTQVTVSS | – | 0.61 nM | 0.00376 s⁻¹ | 6.12e+06 M⁻¹ s⁻¹ | Survivors/Injected mice; i.c.v.; AahII:Nb 1:2; 2 LD50/mouse; 24 ng Nb/mouse [3]: 0 survivors of 4 mice
AahI'A17 (VHH) VHH: QVQLQESGGGSVQDGGSLTLSCAASSSYVFNNLNMGWFRQAPGKECELVSTLFVNGITNYADSVKGRFTVSRDNAKNTVFLHMTNLSTEDTAVYYCAAPDVCSATRCGPACRGQGTQVTVSS | 4 | – | – | – | –
AahI'D10 (VHH) VHH: QVQLQESGGGSVQAGGSLRLSCAASVDTFSTTCMGWFRQTPGKEREGVAVIKTFYAGTVYADSVKGRFTISQDIAKNTVYLQMNSLNPEDTAMYYCAATGGPYNGRCPLASQPFRYWTQGTQVTVSS | 3 | – | – | – | –
NbAahII36 (VHH, also called cluster C) VHH: QVQLVESGGGSVQAGGSLRLSCAASGYTFSNYRMGWFRQAPGKECELVSTILTDGSTNYADSVKGRFTISRDNAKNTVYLLMNNLKAEDTAVYYCAAGNSRKGYLRRCGGTDFGYWGQGTQVTVSS | – | 0.67 nM | 0.00137 s⁻¹ | 2.04e+06 M⁻¹ s⁻¹ | Survivors/Injected mice; i.c.v.; AahII:Nb 1:2; 2 LD50/mouse; 24 ng Nb/mouse [3]: 1 survivors of 4 mice; Survivors/Injected mice; i.c.v.; AahII:Nb 1:2; 3 LD50/mouse; 36 ng Nb/mouse [3]: 0 survivors of 4 mice
